Test results from the RNAGym collection of RNA variant scans (doi:10.1073/pnas.2313332121).
Fewer inactive variants are shown than the library holds.

B1: TPR 5TU (parent)
chain: GGAUCUUCUCGAUCUAACAAAAAAGACAAAUCUGCCACAAAGCUUGAGAGCAUCUUCGGAUGCAGAGGCGGCAGCCUUCGGUGGCGCGAUAGCGCCAACGUUCUCAACUAUGACACGCAAAACGCGUGCUCCGUUGAAUGGAGUUUAUCAUG

Variants of: B1
Test: polymerase ribozyme fitness, log enrichment relative to wild type (log ratio); higher = more active; in vitro selection for triplet polymerase activity
In short: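 Frozen incubation at −7 °C formed the core of a single, triplicate in vitro selection round applied to PCR-built, transcribed mutant libraries of each subunit of a heterodimeric triplet polymerase ribozyme. Extended constructs were gel-excised, captured with streptavidin beads and amplified by RT-PCR, and input and output libraries were Illumina-sequenced with a filter of ≥10 input reads and ≥1 read per output. Fitness is the logarithm of genotype enrichment relative to wild-type enrichment, with inverse-variance-weighted replicate averaging, and the logarithm is base 2.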

Row | Variant | polymerase ribozyme fitness (log ratio)
1 | G59C C76A C87U A147C | -2.29
2 | G58C C85U | -1.17
3 | G59U C69G | -1.07
4 | G59A G136C | -2.89
5 | G58A G81A | -0.536
6 | G59U A97C C99G | -3.18
7 | G58A U146G | 0.231
8 | G58C G94C | -0.872
9 | G59C U78G G81C | -4.11
10 | G59C A60G C69U | -2.47
11 | G59A G94C | -0.903
12 | G58U A97G A98G G117U U146G | -0.542
13 | G58U U82A G84U U146G | -2.04
14 | G59C C99G G141U | -1.13
15 | G59U A60C | -2.96
16 | G58C U61A G74U U77G C79U G80C C87A | ≤ -4.2
17 | G58A G59A A122G U148C | -2.64
18 | G59U C99U C132U | -1.59
19 | G58C G83U | -2.88
20 | G59A C87G G140C | ≤ -4.2
21 | G59A G67A C108U | ≤ -4.2
22 | G58C G86U C105A | -2.89
23 | G59A C69A G86U A89C C95G | ≤ -4.2
24 | G59U C75A C96G | ≤ -4.2

Row | Variant | polymerase ribozyme fitness (log ratio)
25 | G59C G86A | -2.61
26 | G59C G71A A115G | -4.09
27 | G59A C85G G100A A115U U127G G141A | ≤ -4.2
28 | G59A C85U | -1.79
29 | G58C G80C C95U | ≤ -4.2
30 | G59A C76A C85A G117A A122C | -2.85
31 | G58C C96G | -1.88
32 | G58A C75U C118G | -0.168
33 | G58A A142U | -0.199
34 | G58C G83U C85G | -3.33
35 | G58C C75G C76G C85U | ≤ -4.2
36 | G59C C95U | 0.0454
37 | G59C C95A | -0.188
38 | G58U C129G | -2.47
39 | G59C A60C U77A C85A G140A U144C | ≤ -4.2
40 | G58U C85A C95G C96U | -3.24
41 | G59C G81A | -2.07
42 | G58A G80C | ≤ -4.2
43 | G59C C95U A110G C116A | -3.2
44 | G59A G71A G117C | -3.56
45 | G58U C85G | -1.61
46 | G59A G92U U104C A121C | -2.09
47 | G58C C69A | -2.62
48 | G59C A119C | -0.18

Row | Variant | polymerase ribozyme fitness (log ratio)
49 | G59C G133U | -3.47
50 | G59U C93A G133A A138U G141A | ≤ -4.2
51 | G58C C87U A115G C116G A121U G136U | -4.12
52 | G58U A91G | -2.46
53 | G58C C72U A150U | 0.398
54 | G58A C75G C125G C129A U151G | ≤ -4.2
55 | G59C U101G | -0.121
56 | G59A C93U | -3.33
57 | G59A C93A | -3.22
58 | G59A C93G | -3.78
59 | G59U A98G | 0.162
60 | G58C C87A U109C U130G | ≤ -4.2
61 | G59C A97U U139G | -0.518
62 | G59A C76G C93G | ≤ -4.2
63 | G59C G83A | -0.754
64 | G59C G83U | 0.0759
65 | G58U U78G C79U G80A C85U C96U A106G A147C | ≤ -4.2
66 | G59A C116U | -0.293
67 | G58C U61G U146G | -3.76
68 | G58U C96A G126C | 0.641
69 | G59C A89U G92C A121G | -2.45
70 | G58C G86U U104G | -1.93
71 | G59U C99U U104G G128U U134A G136U A138G | ≤ -4.2
72 | G58U G81A A122G | -0.315

Row | Variant | polymerase ribozyme fitness (log ratio)
73 | G59C G126A | 0.0741
74 | G59C G126U | 0.134
75 | G58A C75U | -1.82
76 | G59C C85G C95U C116A | -2.38
77 | G58C U134G | -3.93
78 | G59C G62A A122U U134G | -3.13
79 | G59A C118G U130A C132G G140A | ≤ -4.2
80 | G58U G86A U130C | 0.803
81 | G58C A98U | -0.459
82 | G58U C87A U109C U148C | ≤ -4.2
83 | G58U C69A G83A | -1.52
84 | G59C C69A G133C | -1.75
85 | G58A G94A | -0.945
86 | G58A G94C | -0.674
87 | G59U C93A G152U | ≤ -4.2
88 | G58A C63G G86U G94C A137C G141U U151C | ≤ -4.2
89 | G58C C85U A89G G136A | -3.96
90 | G59C A147C | -0.516
91 | G59U A91U G141A | ≤ -4.2
92 | G58A G92A C123G | -4.01
93 | G58A C87U | -0.808
94 | G58A C103A | -1.19
95 | G58A U135C | -1.39
96 | G58C A73G G84U | -1.97

Row | Variant | polymerase ribozyme fitness (log ratio)
97 | G58C G68A G94U C96G | ≤ -4.2
98 | G58A C87U G92A A150G | -0.884
99 | G58A A98G G100A U104G A113G A119U A120U A122U U145C | ≤ -4.2
100 | G59C U127G U130C | ≤ -4.2
101 | G59C C93A C95A | -4.05
102 | G59A C99U A115G | -1.83
103 | G58A C96A A97G A106C A119U | -1.42
104 | G59C G94C A119C U146G | -1.61
105 | G59A C87U A121U | -0.901
106 | G59A G86U | -1.84
107 | G59A G86A | -2.02
108 | G59A C79U | -3.86
109 | G58A C85U A115U U144G | -1.46
110 | G58U U82A G84U | -0.648
111 | G58C A122G A150C | -3.46
112 | G59C G74A G80C U127G A142G | ≤ -4.2
113 | G58U G152U | -2.71
114 | G59C A142C | -0.57
115 | G58A U82C G92C A110U G136A | ≤ -4.2
116 | G58C C85A A110C U111G | ≤ -4.2
117 | G59C C95A C99G | ≤ -4.2
118 | G58A C87U C108U A142C | -3.89
119 | G59C G83A C87A A137U G140U | ≤ -4.2
120 | G58C C103A U145G | -1.84

Row | Variant | polymerase ribozyme fitness (log ratio)
121 | G58U C75A U90A | ≤ -4.2
122 | G58C G59C C96U C131A | -4.15
123 | G58C A66C C87G U139A | ≤ -4.2
124 | G59C A89U C96G A107G | ≤ -4.2
125 | G58U A137C | -3.03
126 | G59C G88C A106U C108U | ≤ -4.2
127 | G59A A60C | -1.48
128 | G59A A60G | -0.0653
129 | G58U G128U | -3.02
130 | G59C A110G | -3.79
131 | G59U G84U | -2.72
132 | G58A G86U A119U | -2.06
133 | G59U C75U C76U C93G A115U | ≤ -4.2
134 | G58C U61A C79A A91G G117A | ≤ -4.2
135 | G59A C75G G94U C95U | -3.76
136 | G59C A98U C125A G140C | ≤ -4.2
137 | G58C G84U G136U | -3.72
138 | G58A G88U C96U C118A C125A G133A | ≤ -4.2
139 | G58A G59U G62C G67U A73U C96A U130G A138U A150G | ≤ -4.2
140 | G59A A66G | -3.24
141 | G59C G68C G70U G140U | ≤ -4.2
142 | G58C A115U U127C U144G | 0.143
143 | G59U A120U A122U | -0.451
144 | G59C C63U C87U A107U | -3.81

Row | Variant | polymerase ribozyme fitness (log ratio)
145 | G58C C63G C96G | -0.61
146 | G58C C96A A115U G128U | ≤ -4.2
147 | G59A G83U | -1.06
148 | G59U A91U | -4.12
149 | G59U A89U C95G | -2.27
150 | G59U C69G G88C C125A | ≤ -4.2
151 | G59A A110U | -3.64
152 | G58C A60G | 0.746
153 | G59C U78C G83A | -0.666
154 | G59C C114U G128A A142U | -2.5
155 | G58C C63U A120C | -0.534
156 | G58C G83A G84U G92U U135A U139G G141A | ≤ -4.2
157 | G59U C87U C108U C125A | -3.4
158 | G58C U139C | -3.3
159 | G58U G68A C95U | -4.01
160 | G58C G80A C95U U127G C149G | ≤ -4.2
161 | G58A C87U G100C A122C G126A G141U | ≤ -4.2
162 | G58U C123U | 0.837
163 | G58A U82A A89U A119G A120U G126U | -0.897
164 | G58U G86C | -1.98
165 | G59U C85U A150U | 1.1
166 | G59A U78A G92U C96A C114U A121U | ≤ -4.2
167 | G59A G84U G92C C95G G124C | -2.69
